Residue numbers refer to the chain shown, from its start. Names may count otherwise.
B1: AANAT2 (Sparus aurata) (protein)
chain: MTQQVSGSPFFKPFFLKTPVSLLRQRRHTLPASEFRNLTPQDAISVFEIEREAFVSVSGECPLTLDEVLNFLGQCPELSLGWFEEGQLVAFIIGSGWGKERLSQEAMTQHVPDSPAVHIHVLSVHRHCRQQGKGSILLWRFLQYLRCIPGLRRALLICEEYLVPFYQKAGFKEKGPSAISISNMQFQEMEYTIGGQAYTRRNSGC
B2: AANAT2 (Sparus aurata; I157M) (protein)
chain: B1 chain with I157M
B3: AANAT2 (Sparus aurata; G73T/L69R/N70H/Q74L) (protein)
chain: B1 chain with L69R, N70H, G73T, Q74L
B4: AANAT2 (Sparus aurata; S123A) (protein)
chain: B1 chain with S123A

What was measured:
[1] = substrate: NCCc1c[nH]c2ccc(O)cc12; assay: colorimetric assay of CoASH release, non-linear regression; format: biochemical, Sparus aurata; conditions: near-saturating AcCoA; apparent Km
[2] = substrate: NCCc1c[nH]c2ccccc12; assay: as above; format: biochemical, Sparus aurata; conditions: near-saturating AcCoA; apparent Km

Row | Protein | Km [1] | Km [2]
1 | B1 | 2.2 mM | 2.0 mM
2 | B2 | 0.94 mM | 0.90 mM
3 | B3 | 0.88 mM | 1.2 mM
4 | B4 | 0.65 mM | 0.65 mM

— article PMC3111191, “Molecular Evolution of Multiple Arylalkylamine N-Acetyltransferase (AANAT) in Fish” (Marine Drugs, 2011)
